Assay results published in patent publication US20030143669.

Tests used:
[1] = system: CHO-expressed epitope-tagged, soluble human phosphodiester α-GlcNAcase
[2] = system: Insect-expressed epitope-tagged human phosphodiester α-GlcNAcase lacking the pro-sequence

## Furin
[1]
  UCE activity, % increase relative to the minus Furin samples: up to 130% increase in activity
  Western blot of cleavage (pro-UCE to mature UCE): the CHO-derived UCE is sensitive to furin cleavage as shown by the progressive conversion of the pro-UCE to the mature form
[2]
  Western blot of cleavage; UCE activity: the insect-derived UCE is not cleaved by furin as shown by the single UCE form
